± gives the uncertainty stated by the source.
B1: Arginine-glutamic acid dipeptide repeats protein, residues 502 to 543; numbered along this chain, Q9P2R6 (parent)
chain: LKGYACRHCFTTTSKDWHHGGRENILLCTDCRIHFKKYGELP

Variants of: B1
Assay: abundance fitness (aPCA) (normalised: wild type 0, dead -1); higher = more abundant; growth selection in yeast, the domain comes from the species named
Conditions: Homo sapiens

Variant	abundance fitness
Y38N	0.083 ± 0.087
Y38S	-0.017 ± 0.047
Y38M	-0.117 ± 0.06
Y38C	0.059 ± 0.054
Y38I	-0.298 ± 0.1
Y38K	-0.002 ± 0.041
Y38Q	-0.062 ± 0.11
Y38H	-0.111 ± 0.26
Y38W	-0.074 ± 0.049
Y38A	-0.077 ± 0.038
Y38P	-0.215 ± 0.056
Y38V	0.022 ± 0.036
Y38F	-0.069 ± 0.062
Y38E	0.018 ± 0.041
Y38T	0.123 ± 0.059
Y38D	-0.114 ± 0.047
Y38R	-0.084 ± 0.034
Y38L	-0.123 ± 0.04
Y38G	-0.185 ± 0.033
G39A	-0.108 ± 0.033
G39V	-0.42 ± 0.042
G39P	-0.478 ± 0.061

Variant	abundance fitness
G39C	-0.142 ± 0.26
G39D	0.053 ± 0.071
G39N	0.027 ± 0.095
G39I	-0.726 ± 0.17
G39Q	-0.082 ± 0.046
G39F	-0.393 ± 0.14
G39L	-0.249 ± 0.048
G39W	-0.301 ± 0.038
G39S	-0.171 ± 0.041
G39M	-0.328 ± 0.065
G39Y	-0.259 ± 0.047
G39R	-0.118 ± 0.03
G39E	-0.078 ± 0.04
G39T	-0.291 ± 0.05
P42R	-0.654 ± 0.1
P42E	-0.3 ± 0.09
P42V	-0.456 ± 0.09
P42G	-0.519 ± 0.12
P42L	-0.491 ± 0.085
P42Q	-0.349 ± 0.073
P42A	-0.367 ± 0.048
K37T	-0.032 ± 0.056

Variant	abundance fitness
K37A	-0.034 ± 0.037
K37N	-0.09 ± 0.068
K37V	-0.149 ± 0.036
K37D	-0.013 ± 0.049
K37M	-0.089 ± 0.065
K37S	-0.052 ± 0.051
K37L	-0.194 ± 0.041
K37G	-0.184 ± 0.039
K37W	-0.135 ± 0.044
K37P	-0.278 ± 0.13
K37Q	-0.027 ± 0.046
K37R	-0.026 ± 0.036
K37E	-0.04 ± 0.047
K37Y	-0.159 ± 0.12
K37C	-0.168 ± 0.061
K37H	-0.182 ± 0.38
L41S	-0.325 ± 0.045
L41F	0.271 ± 0.33
L41Y	-0.22 ± 0.097
L41E	-0.301 ± 0.039
L41N	-0.366 ± 0.055
L41H	-0.416 ± 0.069

Variant	abundance fitness
L41P	-0.253 ± 0.041
L41A	-0.317 ± 0.041
L41C	-0.223 ± 0.052
L41K	-0.309 ± 0.044
L41M	-0.126 ± 0.057
L41W	-0.302 ± 0.038
L41T	-0.044 ± 0.08
L41Q	-0.327 ± 0.078
L41D	-0.245 ± 0.072
L41G	-0.276 ± 0.036
L41V	-0.246 ± 0.039
L41I	-0.46 ± 0.092
E40D	-0.101 ± 0.049
E40A	-0.066 ± 0.034
E40K	-0.044 ± 0.045
E40P	-0.521 ± 0.089
E40F	-0.472 ± 0.1
E40N	-0.116 ± 0.056
E40S	-0.077 ± 0.037
E40M	-0.176 ± 0.045
E40Q	-0.012 ± 0.058
E40H	-0.11 ± 0.073

Variant	abundance fitness
E40G	-0.136 ± 0.033
E40Y	-0.143 ± 0.094
E40I	-0.095 ± 0.38
E40C	-0.073 ± 0.072
E40L	-0.122 ± 0.038
E40V	-0.036 ± 0.038
E40W	-0.265 ± 0.038
E40T	-0.078 ± 0.036
K36Q	0.123 ± 0.075
K36R	-0.029 ± 0.034
K36T	0.009 ± 0.055
K36W	-0.147 ± 0.052
K36S	0.008 ± 0.041
K36M	-0.095 ± 0.051
K36N	0.248 ± 0.092
K36F	0.294 ± 0.13
K36V	-0.038 ± 0.048
K36L	-0.068 ± 0.042
K36G	0.079 ± 0.033
K36P	-0.363 ± 0.054
